Reference: patent US7119077B1, “Multimeric forms of members of the steroid/thyroid superfamily of receptors with the ultraspiracle receptor” (The Salk Institute for Biological Studies, priority 1990, dated 2006)

T1: usp/VDR heterodimer (Drosophila melanogaster / Homo sapiens, UniProt P20153;P11473 P20153:1-508,P11473:1-427)
T1 sequence 1: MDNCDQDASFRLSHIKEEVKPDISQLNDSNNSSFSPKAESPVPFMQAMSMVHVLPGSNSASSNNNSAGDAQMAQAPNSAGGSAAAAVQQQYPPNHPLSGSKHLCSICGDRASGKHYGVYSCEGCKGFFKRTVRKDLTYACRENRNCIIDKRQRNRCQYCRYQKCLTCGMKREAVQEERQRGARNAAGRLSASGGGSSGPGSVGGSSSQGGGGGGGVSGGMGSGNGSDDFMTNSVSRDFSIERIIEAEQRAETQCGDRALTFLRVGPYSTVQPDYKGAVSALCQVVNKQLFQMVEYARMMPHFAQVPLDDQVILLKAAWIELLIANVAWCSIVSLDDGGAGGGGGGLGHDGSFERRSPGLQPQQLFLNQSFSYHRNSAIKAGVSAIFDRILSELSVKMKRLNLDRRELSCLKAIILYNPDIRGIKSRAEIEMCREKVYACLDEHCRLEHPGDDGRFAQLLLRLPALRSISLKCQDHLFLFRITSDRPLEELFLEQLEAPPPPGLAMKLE
T1 sequence 2: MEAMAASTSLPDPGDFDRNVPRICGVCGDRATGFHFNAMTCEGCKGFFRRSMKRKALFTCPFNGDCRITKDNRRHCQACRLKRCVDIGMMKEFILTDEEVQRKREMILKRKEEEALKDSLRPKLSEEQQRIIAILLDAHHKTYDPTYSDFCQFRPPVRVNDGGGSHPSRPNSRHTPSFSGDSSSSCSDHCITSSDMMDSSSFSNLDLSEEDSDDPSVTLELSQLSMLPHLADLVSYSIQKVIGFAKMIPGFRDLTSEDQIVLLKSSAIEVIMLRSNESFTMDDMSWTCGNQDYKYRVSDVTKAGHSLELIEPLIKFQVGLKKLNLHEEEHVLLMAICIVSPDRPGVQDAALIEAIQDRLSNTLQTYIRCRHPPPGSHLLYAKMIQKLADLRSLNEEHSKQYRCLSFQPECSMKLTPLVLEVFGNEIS

T2: usp/PPAR heterodimer (Drosophila melanogaster / Rattus …, UniProt P20153;P37230 P20153:1-508,P37230:1-468)
T2 sequence 1: T1 sequence 1
T2 sequence 2: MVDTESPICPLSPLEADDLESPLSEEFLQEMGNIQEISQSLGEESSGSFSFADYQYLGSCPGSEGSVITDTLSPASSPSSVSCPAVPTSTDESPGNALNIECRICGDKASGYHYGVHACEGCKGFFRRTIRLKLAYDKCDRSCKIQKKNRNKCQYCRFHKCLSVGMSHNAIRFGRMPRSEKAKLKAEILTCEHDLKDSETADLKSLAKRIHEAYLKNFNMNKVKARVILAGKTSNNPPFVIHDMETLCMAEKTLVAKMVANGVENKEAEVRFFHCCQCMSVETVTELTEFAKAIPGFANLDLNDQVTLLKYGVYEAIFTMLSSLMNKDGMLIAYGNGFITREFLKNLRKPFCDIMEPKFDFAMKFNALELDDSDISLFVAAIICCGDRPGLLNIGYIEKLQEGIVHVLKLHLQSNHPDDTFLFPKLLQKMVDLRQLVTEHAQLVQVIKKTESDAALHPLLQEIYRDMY

B1: SPP1-VDRE (DR3, printed SSP1) (dsDNA)
DNA 1: GGTTCACGAGGTTCA
DNA 2: TGAACCTCGTGAACC
B2: AOX-PPARE (DR1) (dsDNA)
DNA 1: AGGACAAAGGTCA
DNA 2: TGACCTTTGTCCT

How the values were obtained:
usp/VDR heterodimer = target: T1, usp/VDR heterodimer; assay: EMSA; usp dependent; usp antibody supershift; conditions: label: 32P
Protocol: (§1) For gel mobility shift assay, proteins were incubated with binding buffer, which contained 100 mM KCl, 7.5% glycerol, 20 mM HEPES pH 7.5, 2 mM DTT and 0.1% NP-40, on ice for 20 minutes in the presence of 2 μg of nonspecific competitor poly dI-dC and other oligo competitors. Then approximately 1 ng of ^32P-dCTP probe, which was labelled to specific activity about 1-5×10^8 cpm/μg by fill-in reaction with Klenow fragments, was added to the reaction and incubated at room temperature for 20 minutes. Antiserum or preimmune serum was added 10 minutes after the probe was added. The reaction was then loaded into 5% non-denaturing polyacrylamide gel in 0.5×TBE running buffer [1×TBE comprises 0.089 M Tris borate, 0.089 M boric acid and 0.002 M EDTA]. After electrophoresis, the gel was dried for autoradiography.
(§2) Using in vitro translated usp protein, interaction of usp with three mammalian nuclear receptors (TRβ, VDR and PPAR) was tested in gel mobility shift assays with the appropriate response element for each of the three receptors as the probes.

usp/PPAR heterodimer = target: T2, usp/PPAR heterodimer; assay: EMSA; high affinity; usp antibody supershift; conditions: label: 32P
Protocol: as §1, §2

Binder | binding result (usp/VDR heterodimer) | binding result (usp/PPAR heterodimer)
B1 | binds | –
B2 | – | binds
